Measurements taken from publication PMC7494997 (Scientific Reports, 2020).

What was measured:
[1] = target: T1, yeast-displayed hVISTA (human); assay: flow cytometry on cells; hVISTA (Phe33-Ala194) displayed on yeast, titrations of soluble antibody in PBS/BSA pH 7.4, 4 °C, 12 h; conditions: one partner purified
T1 construct: also called wild-type hVISTA; WT VISTA

[2] = target: T1, yeast-displayed hVISTA; assay: flow cytometry on cells; hVISTA (Phe33-Ala194) displayed on yeast, titrations of soluble antibody in PBS/BSA pH 6.0, 4 °C, 12 h; conditions: one partner purified

T1 sequence (chain, as listed by the source): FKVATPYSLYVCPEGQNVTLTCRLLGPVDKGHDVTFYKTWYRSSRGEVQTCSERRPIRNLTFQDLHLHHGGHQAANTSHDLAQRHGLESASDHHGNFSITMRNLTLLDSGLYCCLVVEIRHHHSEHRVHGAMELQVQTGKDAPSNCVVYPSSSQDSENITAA

Binder	Kd [1]	Kd [2]
VSTB112 (antibody, V domains shown, human IgG1 heavy chain; human kappa light chain; full human IgG1; also called CI-8993 (Janssen/ImmuNext, Curis); source: Expi293 cells, purified (protein A)) VH: QVQLVQSGAEVKKPGSSVKVSCKASGGTFSSYAISWVRQAPGQGLEWMGGIIPIFGTANYAQKFQGRVTITADESTSTAYMELSSLRSEDTAVYYCARSSYGWSYEFDYWGQGTLVTVSS VL: DIQMTQSPSSLSASVGDRVTITCRASQSIDTRLNWYQQKPGKAPKLLIYSASSLQSGVPSRFSGSGSGTDFTLTISSLQPEDFATYYCQQSAYNPITFGQGTKVEIK	~3 nM	–
BMS767 (antibody, V domains shown, human IgG1 heavy chain; human kappa light chain; full human IgG1; also called BMS (Bristol Myers Squibb); source: Expi293 cells, purified (protein A)) VH: EVQLVESGGGLVQPGKSLRLSCAASGFTLEDYAMHWVRQAPGKGLEWVSGIDWNSENIGYADSVKGRFTISRDNAKNSLYLQMNSLRTEDTALYYCAKVPGYSGGWIDAEDDWGQGTMVTVSS VL: not shown	–	~3 nM
